The target in this assay is GST-HP1α (full-length human heterochromatin protein 1 α with N-terminal GST) (human) (UniProt P45973). The assay is described as follows: pull-down; GST-HP1 anchored on GSH-Sepharose (80 pmol), 1.2 μg native oligo-nucleosomes from HeLa; absence of MgCl2; 50 mM NaCl, 20 mM Tris-HCl pH 7.4, room temperature 30 min; H3K9me3 and H4 detected by western blot. A general note: Immunoblotting shows a protein as a band on a membrane.
Sequence of UniProt P45973 (P45973 whole entry): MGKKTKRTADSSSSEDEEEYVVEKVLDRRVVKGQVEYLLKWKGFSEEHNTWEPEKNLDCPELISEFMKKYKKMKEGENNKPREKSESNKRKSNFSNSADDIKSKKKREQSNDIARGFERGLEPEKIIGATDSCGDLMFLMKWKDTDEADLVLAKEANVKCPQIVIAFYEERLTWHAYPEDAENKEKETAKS

With “native oligo-nucleosomes prepared from HeLa cell nuclei (H3K9me3-nucleosomes detected) (complex)”, the percent of input bound was 18 % of input.

Source of the values: PMC4666388.
